Target: the molecule itself
Assay: crystal structure; apo DiB3, crystals grown at 21 °C in 0.8 M sodium citrate, 50 mM sodium borate, 0.1 sodium acetate, pH 3.5; one chain in the asymmetric unit, dimer with a crystallographic symmetry mate

B1: DiB3 (natural protein)
chain: LESTSLYKKSSSTPPRGVTVVNNFDAKRYLGTWYEIARFDHRFERGLEKVTATYSLRDDGGLNFINKGYNPDRGMWQQSEGKAYFTGAPTRAALKVSFFGPFYGGYNVIALDREYRHALVCGPDRDYLWIQSRTPTISDEVKQEMLAVATREGFDVSKFIWVQQPGS
  stoichiometry N: 2
